In patent US20120108492A1, “LIGAND-SPECIFIC NON-ANTIBODY COMPOUNDS THAT INHIBIT CR2 ACTIVATION AND METHODS OF USE THEREOF” (The Regents of the University of Colorado, priority 2008, published 2012):
Where two headings read alike, the source gives them in different places.

How the values were obtained:
EBV gp350 [1] = target: T1, EBV gp350 (Epstein-Barr virus, UniProt P03200); assay: MBP-CR2 SCR1-2 mutant-EBV gp350 ELISA; format: binding; design: DNA corresponding to residues 1-470 of EBV gp350/220; E. coli biotin carboxyl carrier protein (BCCP) fragment, residues 70-156; hexa-histidine (C); made in house; host or cells: human embryonic kidney 293f freestyle cells (pSecTag2/Hygro B); details: for EBV gp350 binding relative to wild-type CR2: mutant MBP-CR2 SCR1-2
Experimental: See Martin et al. (1991) J Exp Med 174:1299-311; Young et al. (2007) J Biol Chem 282:36614-36625; Guthridge et al. (2001) Biochemistry 40:5931-41; and Sarrias et al. (2001) J Immunol 167:1490-9. […] Young et al. (2007) J Biol Chem 282:36614-36625.
(§1) After coating, the plates were blocked using 0.1% BSA in a PBS solution, pH 7.4 for one hour at room temperature. The plates were then washed, and incubated with either wild-type or mutant MBP-CR2 SCR1-2, at concentrations ranging from 0.03125-2.0 μg/ml in PBS for one hour at room temperature. After further washing, wild-type or mutant MBP-CR2 binding was detected using commercially available horseradish peroxidase-conjugated anti-MBP mAb (New England Biolabs) according to the manufacturer's instructions.

anti-CR2 SCR1-2 mAb 629 = assay: MBP-CR2 SCR1-2-629 mAb ELISA; format: binding; details: mutant MBP-CR2 SCR1-2 relative to wild-type; for % 629 mAb Bindng: plate-bound 629 mAb
Text: The excellent correlation observed between our cell-binding studies and the ELISA analyses provides proof-of-principle that the MBP-CR2 SCR1-2 ELISA is an effective means of characterizing CR2-ligand interactions. […] See Asokan et al. (2006) J Immunol 177:383-94; Guthridge et al. (2001) J Immunol 167:5758-66; Young et al. (2007) J Biol Chem 282:36614-36625. […] This epitope overlaps extensively with the binding surface on CR2 described above for EBV gp350, and also with the previously described binding sites for C3dg and C3d. Hannan et al. (2005) J Mol Biol 346:845-58; and Young et al. (2007) J Biol Chem 282:36614-36625.
as §1

[2] = tested on: anti-CR2 SCR1-2 monoclonal antibody 171; assay: MBP-CR2 SCR1-2-171 mAb ELISA; format: binding; details: mutant MBP-CR2 SCR1-2 relative to wild-type; for % 171 mAb Binding: plate-bound 171 mAb
Experimental: See Asokan et al. (2006) J Immunol 177:383-94; Guthridge et al. (2001) J Immunol 167:5758-66; Young et al. (2007) J Biol Chem 282:36614-36625. […] Hannan et al. (2005) J Mol Biol 346:845-58; and Young et al. (2007) J Biol Chem 282:36614-36625.
as §1

EBV gp350 [3] = target: T1, EBV gp350; details: previously observed cell-binding study; mutant CR2 relative to wild-type; cited from earlier work

T1 sequence (P03200 1-470): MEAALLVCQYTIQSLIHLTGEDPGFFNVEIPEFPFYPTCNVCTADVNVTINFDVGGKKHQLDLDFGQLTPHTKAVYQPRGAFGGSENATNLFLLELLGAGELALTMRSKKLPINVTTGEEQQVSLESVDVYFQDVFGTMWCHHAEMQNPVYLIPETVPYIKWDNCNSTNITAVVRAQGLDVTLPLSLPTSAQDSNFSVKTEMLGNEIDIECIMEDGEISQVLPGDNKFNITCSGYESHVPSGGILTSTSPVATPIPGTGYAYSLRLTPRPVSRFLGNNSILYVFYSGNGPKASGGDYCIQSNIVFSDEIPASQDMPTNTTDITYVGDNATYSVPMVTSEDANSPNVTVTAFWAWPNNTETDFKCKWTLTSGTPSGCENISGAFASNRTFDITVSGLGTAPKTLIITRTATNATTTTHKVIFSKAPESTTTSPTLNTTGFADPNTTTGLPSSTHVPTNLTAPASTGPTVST

| Molecule | EBV gp350 binding (EBV gp350 [1]; mutant CR2 relative to wild-type CR2) [%] | EBV gp350 binding relative to wild-type CR2 (EBV gp350 [1]) | Weighting (629 mAb) (anti-CR2 SCR1-2 mAb 629) | % 629 mAb Bindng (anti-CR2 SCR1-2 mAb 629) [%] | Weighting (171 mAb) [2] | % 171 mAb Binding [2] [%] | EBV gp350 binding (EBV gp350 [3]) [%] | decrease in EBV gp350 binding (EBV gp350 [1]; reduction relative to wild-type MBP-CR2 SCR1-2) |
| --- | --- | --- | --- | --- | --- | --- | --- | --- |
| Y16A: single-site mutant of recombinant MBP-CR2 SCR1-2 (protein, left off: large carriers; small tags and cut ends) ISCGSPPPILNGRISAYSTPIAVGTVIRYSCSGTFRLIGEKSLLCITKDKVDGTWDKPAPKCEYFNKYSSCPEPIVPGGYKIRGSTPYRHGDSVTFACKTNFSMNGNKSVWCQANNMWGPTRLPTCVSVFPLE | 95.1 | failed to inhibit EBV gp350 binding | ++++ (++++>90%) | 154.4 | +++ (+++89.9-70%) | 81.4 | 66.7 | – |
| R83A: single-site mutant of recombinant MBP-CR2 SCR1-2 (protein, left off: large carriers; small tags and cut ends) ISCGSPPPILNGRISYYSTPIAVGTVIRYSCSGTFRLIGEKSLLCITKDKVDGTWDKPAPKCEYFNKYSSCPEPIVPGGYKIAGSTPYRHGDSVTFACKTNFSMNGNKSVWCQANNMWGPTRLPTCVSVFPLE | – | decreased binding affinities for EBV gp350 | ++++ (++++>90%) | 94.4 | ++++ (++++>90%) | 96.9 | – | – |
| K67A: single-site mutant of recombinant MBP-CR2 SCR1-2 (protein, left off: large carriers; small tags and cut ends) ISCGSPPPILNGRISYYSTPIAVGTVIRYSCSGTFRLIGEKSLLCITKDKVDGTWDKPAPKCEYFNAYSSCPEPIVPGGYKIRGSTPYRHGDSVTFACKTNFSMNGNKSVWCQANNMWGPTRLPTCVSVFPLE | – | – | ++++ (++++>90%) | 107.2 | +++ (+++89.9-70%) | 87.7 | – | approximately 20% |
| R89A: single-site mutant of recombinant MBP-CR2 SCR1-2 (protein, left off: large carriers; small tags and cut ends) ISCGSPPPILNGRISYYSTPIAVGTVIRYSCSGTFRLIGEKSLLCITKDKVDGTWDKPAPKCEYFNKYSSCPEPIVPGGYKIRGSTPYAHGDSVTFACKTNFSMNGNKSVWCQANNMWGPTRLPTCVSVFPLE | – | decreased binding affinities for EBV gp350 | +++ (+++89.9-70%) | 87.7 | ++++ (++++>90%) | 93.9 | – | – |
